# Experimental data reported in the nanobody polyreactivity screen of Harvey et al. (2022).
# Test: yeast display, Sf9 membrane polyspecificity reagent, FACS + sequencing; frameworks hold sequencing errors
# Method in brief: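 Synthetic nanobody libraries on Saccharomyces cerevisiae BJ5465 were galactose-induced for 36–48 hours, stained 1 hour at 4 °C with 10% biotinylated, detergent-solubilized Sf9 membrane reagent and enriched on streptavidin microbeads. FACS then separated cells into low and high (top ~1%) gates by anti-HA (expression) and streptavidin (reagent binding) fluorescence. Genes were colony-PCR amplified, MiSeq 2 × 250 sequenced and CDR-length filtered. A clone's polyreactivity label is that of its gate of origin.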
row,Sequence,polyreactivity (PSR sort gate)
1,QVQLVESGGGLVQAGGRLRLSCAASGRIFTPNPMGWYRQAPGKERELVAAITTSAGRTYYADSVKGRFSISRDNAKNTVYLQMNSLKPEDTAVYYCAARYFPIRGYSWGQGSQVTVSS,high polyreactivity
2,QVQLVESGGGLVQAGGSLRLSCAASGSIFWGYDMGWYRQAPGKERELVARISYSGGSTSYADSVKGRFTISRDNAKNTVYLQMNSLKPEDTAVYYCAADEGGFWWTYPYDSWGQGTQVTVSS,low polyreactivity
3,HVRLQESGGGLVQAGGSLRQSCAASGAISPYYDMGWYRLAPGKEREFVASIAHGGTTYYADSVKGRFTTSRDNAKNTVYLQMNSLKPEDTAVYYCAVAYDVWHSHIYRGQGTQVTVSS,high polyreactivity
4,QVQLVESGGGLVQAGGSLRLSCAASGRTFPSYTMGWYRQAPGKERELVAAITWTGGSTYYADSVKGRFTISRDNAKNSVYLQMNCLKPEDTAVYYCADDDYWGQGTQVTVSS,low polyreactivity
5,QVQLVESGGGLVQAGGSLRLSCAASGRTFRKYAMGWYRQAPGKERELVAGITSIGGRTYYADSVKGRFTISRDNAKNTVYLQMNSLKPEDTAVYYCAAEPYGGGVKHSAYDYCGQGTQVTVSS,low polyreactivity
6,QVQLVESAAGLVQAGGSLRLSCAASGFISPLYDMGGYRQAPGKERELVADITWRGGSTSYADSVKGRFTLSRDTAKKTGYLQMNSLKPEDTAVYYCAADARAFYYSNINGYWGQGTQVNVSS,high polyreactivity
7,QVQLVESGGGLVQAGGSLRLSCAASGRTFLYYAMGWYRQAPGKERELVAAISTGSSTYYADSVKGRFTISRDNAKNTVYLQMNSLKPEDTAVYYCAAGSIVGYPGFSTDDYWGQGTQVTVSS,low polyreactivity
8,QVQLVESVGGLVQAGGSLRLSCAASGNIFRGYTMGWYRQAPGKESELVATITWTGVSTFYADSVKGRFTISRDNAKNTVYLQMNSLKPEDTAVYYCAAYYPSHDYSGFWSDTYEYWGQGTQVTVSS,low polyreactivity
9,QVQLVESGGGLVQAGGSLRLSCAASGSIFSSYAMGWYRQAPGKERELVAAITGRDGSTYYADSVKGRFTISRDNAKNTVYLQMNILKPEDTAVYYCAASRFYFPRTFGGYPKLASYDYWGQGTQVTVSS,low polyreactivity
10,QVQLVEYQGGLVQAGGSLRLSSAASGIIFDQYAMGWYRQAPGKEREVVAAITYSGGCTYYADSVNGRFTISRDNEKNTVYLQMNSLKPEDTAVYYCADLFGYSLYDAQYDYWGQGTQVTVSS,low polyreactivity
11,QVQLVESGGGLVQAGGSLRLSCAASGRIFYRYAMGWYRQAPGKERELVATMSWSGGSTYYADSVKGRFTISRDNAKNTVYVQMNSLKPEDTAVYYCNAAYGYVSRVYYLIEHDYWGQGTQVTVSS,high polyreactivity
12,QVQLVESGGGLVQAGGSLRLSCAASGSTFYSNAMGWYRQAPGKERELVDSISWSSGSTYYADSVKGRFTISRDNAKNTVYLQMNSLKPEDTAVYYCATDAGGPYRFGYWGQGTQVTVSS,low polyreactivity
13,QVQLVESGGGLVQAGGSLRLSCAASGYTFRWYVMGWYRPAPGKERELVAAISQSGGDTYYADSVKGRFTISRDNAKNTVYLQMNSLKPEDTAVYYCAVGRVGRFYYWGQGTQVTVSS,high polyreactivity
14,QEQLVESGGGIVKAGGSLRLSCAASGSIFSYYAMGRYRKSPGKEMELVAGITGGGSTDYADSLKGRFTISRDNAKNTVYLQMNSLIPEDPAVYYCAKRYVPWRPYDYWGQGTQVTVSS,low polyreactivity
15,QVQLVESGGGLVQAGGSLRLSCAASGSTFYYNAMGWYRQAPGKERELVASISRSGGSTYADSVKGRFTISRDNAKNTVYLQMNSLKPVDTAVYYCNADAYGTPEFTSYAVRYDYWGQGTQVTVSS,low polyreactivity
16,QVQLVESGGGLVQAGGSLRLSCAASGGTFRGYAMGWYRQAPGKERELVAAITYSGGRTYYADSVKGRFTISRDNAKNTVYLQMNSLKPEDTAVYYCNAQSSGRLSYRYDYWGQGTQVTVSS,high polyreactivity
17,QVQLVESGGGLAQAGGSLRLTCAASGNTFPLYPMGWYRQAPGKERELFAAISQRGGSTYYSDSVKGRFTISRDYAKNTVYLQMNSLKPEDTAFYYCAATWADEYQYRRYYYWGQGTQVTVSS,high polyreactivity
18,QVQLVESGGGLVQAGGSLRLSCAASGRIFPRYAMGWYRQAPGKERELVAAISWSGGRTYYADSVKGRFTISRDNAKNTVYLQMNSLKPEDTAVYYCAKYVGWYGSPGYDYWGQGTHVTVSS,low polyreactivity
19,QVQLVESGGGLVQAGGSLRLSCAASGRTFRFYAMGWYRQAPGKEREFVASISRGGITYYADSVKGRFTISRDNAKNTVYLQMNSLKPEDTAVYYCAAGYPVLLERYSSFGGYYYWGHGTQVTVSS,high polyreactivity
20,QVQLVESGGGLVQAVASIRLSCAASGITIYLYAKGWSRQAPGKARELVATITSRSGSTYYADSVKGRFTISRDNAKNTVYLQMNSLKPEDTAVYYCAAKYPRYLYGYWGQGTQVTVSS,high polyreactivity
21,QVQLVESGGGLVQAGGSLRLSCAASGSIFNANAMGWYRPAPGKERELVAGIRSGSSTNYADSVKGRFTISRDNAKNTVYLQMNSLKPEDTAVYYCATEGYWVYGFDDEYWGQGTQVTVSS,low polyreactivity
22,QVQLVESGGGLVQAGVSLRISCAASASILVTNAMGWYRHAPGKERELVAAITSIGGSTNYADSVKGRFTISRDNAKNTVYLQMNSLKPEDTAVYYCAAGIYPTVFWVYYWGQGTQVTVSS,low polyreactivity

row,Sequence,polyreactivity (PSR sort gate)
1,QVQLVESGGGLVQAGGSLRLSCAASGGTFGTYAMGWYRQAPGKERELVAAITRSGGSTYADSVKGRFTISRDNAKNTVYLQMNSMKPEDTAVYYCNTRTTWRRYVVNGYDYWGQGTQVTVSS,low polyreactivity
2,QVQLVESGGGLVQAGGSLRLTCAASGRIFRVNTMGWYRQAPGKERELVATINGRGGSTYYADSVKGRFTISRDNAKNTVYLQMNSLKPVDTSVYYCAARARTTRSATYDYWGQGTQGTVSS,high polyreactivity
3,QVQLVESGGGLVQAGGSLRLSCAASGRIFRKYTMGWYRQAPGKERELVAAISRNGGDTYYADSVKGRFTISRDNAKNTVYLQMNSLKPEDTAVYYCNARTPTDSTHFDYWGQGTQVTVSS,low polyreactivity
4,QVQLGESGGCLGQAGGSLRLSCAASGYTFPYNVMGWYRQAPGKERELDAAITSSGGSTYYADSVKGRFTISRDNAKNTVYLQMNRLKPEDTAVYYCNAYPSSSLFDYWGQGTQVTVSS,low polyreactivity
5,QVQLVDSGGGLVQAGGSLRLSCAASGRIIGGKAMGWYRLAPGKVREFVAAIRASGGSPHYADSVKGRFTISRDNAKNTVYLQRNSLTPEDTEVYYCNALSRNTHLYDYWGQGTHVTVSS,high polyreactivity
6,QVLLVESGGGLVQAGGPLRLSCAASGFIIRTNAMGWYREEPGKERELDAAISRRGRTDYADSVKGRFTISRDNAKNTVYLQMKSLTPEESAVYYCNAYYAIQDSVHRYYFWGQGTQGTVSS,high polyreactivity
7,QFQLVESGGGLVQAGGSLRLSCAASGFNFQYNAIGWYRQAPGKERELVAAITWTGTSTYADSVKGRFTISRDYAKNTVYLQMNSLKPEDTSVYYCAARYYAPRWFRYDYWGQGTQVTVSS,low polyreactivity
8,QVQLVESGGALVQAGGSLRLSCAASGRIFVVNAMGWYRQAPGKERELGAAISIRGTRTYYADSVKGRFTISRDNAKNTVYLQMNSLKPEDTAVYYCAADASYTEGMDYWGQGTQVTVSS,high polyreactivity
9,QVQLVESGGVLVQARGSLRLSCAASGRTFRYYAMGWYRQAPGQEREMVATISWSGGRTSYADSVKGRFTISRDNAKNTVYLQMNSLKPEDTAVYDCAVESWLDADDSYPDSILVDYWGQGTQVTVSS,low polyreactivity
10,QVQLVESGGGLVQAGGSLRLSCAASGSIFRGNAMGWYRQAPGKERELVASISYSGGSTYYADSVKGRFTISRDNAKNTVYLQMNSLKPEDTAVYYCAADESVAYPYSGYQYYRHIYDYWGQGTQVTVSS,low polyreactivity
11,QVQLEDSGGGLVQAGGSLRLSCAASGRIFGTNAMGWYRQAPGKERELVATITRGGGNTYYADSVKGRFTISRDNAKNTVYLQMNSLKPEDTAVYYCAAKFNRFAWYSHYDYWGQGTQVTVSS,low polyreactivity
12,QVQLVESGGGLVQAGGSLRLSCAASGITFFRYAMGWYRQAPGKEREFVAAISGRGGSTYYADSVKGRFTISRDNAKNTVYLQMNSLKPEDTAVYYCATRRSYLADYWGQGTQVTVSS,high polyreactivity
13,QVQLVESGGGLVQAGGSLRLSCAASGRTFASNAMGWYRQAPGKERELVAAISSSGGRTYYADSVKGRFTISRDNAKNTVYLQMNSLKPEDTAVYYCAKVGPVYKYDYWGQGTQVTVSS,high polyreactivity
14,QVQLVESGGGLVQAGVSLRLSCAASGRIFGENAMGWYRQAPGEEREFVAVISISDASTYYADSVKGRFTISRDNAKNTVYFQMNSLKPEDTAVYYCAADLTDFLYVASDYCGQGTQVTVSS,low polyreactivity
15,QVQLVESGGGLVQAGGSLRLSCAASGFTFQYNAMGWYRQAPGKERELVAAITWTGTSTYADSVKGRFTISRDNATNTVYLQMNSLKPEDTAVYYCADSYYAPRWFRYDYWGQGTQVTVSS,low polyreactivity
16,QVQLVESGGGLVQAGGSLRLSCAASGFIFYYYDMGWYRQAPGKERELVAAISFDGDSTYYADSVKGRFTISRDNAKNTVYLQMNSLKPEDTAVYYCAARDYRYRYGYWGQGTQVTVSS,high polyreactivity
17,QVQLVESGGGLDQAGGSLRLSCAASGSTFGGNAMGWYRQAPGKERELVAAISGGDRTNYADSVKGRFTISRDNAKNSVYLQMNSLKPEDTAVYYCAADAGYWDLRSGIYKEDYWGQGTQVTVSS,low polyreactivity
18,QVQLVESGGGLVQAGGSLRLSCAASGIIFRLYGMGWYRPAPGKAREFVATITWRGGRTNYADSVKGRFTISRDNAKNTVYLLMNSRKPEDTADYYCAKDVRYARSNEYDSWGQGTQVTVSS,low polyreactivity
19,QVQLVESGGGLVQAGGSLRLSCAASGSTFGMNAMGWYRQAPGKERELVAAIDSSGGTTYYADSVKGRFTISRDHAKNTVYLQMNSRKPEDTAVYYCAADDNYYTFGYWGQGSQVTVSS,high polyreactivity
20,QVQLVESGGGLVQAGGSLRLSCAASGSIFSFYTMGWYRQAPGKERELVARIRSSGGDTYYADSVKGRFTISRDNAKNTVYLQMNSLKPEDTAVYYCARDGYHRDYDYWGQGTQVTVSS,low polyreactivity
21,QDQLVESGGGLVQAGGSLRLSCAASGSTLDGNAMGWYRQAPGKERELVAGIDTGGSTYYADSVKGRFTISRDNAKNTVYLQMNSLKPEDTAVYYCAATDREDYDYWGQGTQVTVSS,low polyreactivity
